B1: CA4: anti-tau clone, SEQ ID NO: 368 (protein)
chain: QVQLQESGPSLVKPSQTLSLTCTVSGFSLTSYSVYWVRQAPGQALEWISIMYASGRVDYNPALKSRLSITRDTSKSQFSLSLSSVTTEDTAVYYCTRGIENWGPGLLVTVSSEGKSSGASGESKVDDDIQVTQSPSSLSASLTERVSITCRTSQSVNNYLSWYQQKPGQAPKLLIYYATRLYTDVPSRFSGSGSGTDYTLTITSLEADDTATYYCLQYDSTPLAFGGGTNVEIK
modifications: CA4 amino acid sequence
B2: CA12: anti-tau clone, SEQ ID NO: 372 (protein)
scFv: QVQLQGSGPSLVKPSQTLSLTCTVSGFSFDSYYVGWVRQAPGKALEWLGNIYSTGRAFYNPALKSRLSITRDTSKSQVSLSVSSVTIEDTALYYCVRGSYYHGGGNGMVDFFDYWSPGLLVTVSSEGKSSGASGESKVDDQVVRTQPSSVSGSLGQRVSITCSGSSSNVGYGNYVGWFQQVPGSAPKLLIYAATSRASGVPDRFSGSRSGNTATLTIDSLQAEDEADYYCSSYQRGNTGVFGSGTRLTVLG
modifications: CA12 amino acid sequence
B3: CA12 scAb (protein)
scFv: QVQLQGSGPSLVKPSQTLSLTCTVSGFSFDSYYVGWVRQAPGKALEWLGNIYSTGRAFYNPALKSRLSITRDTSKSQVSLSVSSVTIEDTALYYCVRGSYYHGGGNGMVDFFDYWSPGLLVTVSSEGKSSGASGESKVDDQVVRTQPSSVSGSLGQRVSITCSGSSSNVGYGNYVGWFQQVPGSAPKLLIYAATSRASGVPDRFSGSRSGNTATLTIDSLQAEDEADYYCSSYQRGNTGVFGSGTRLTVLG
modifications: left off: small tags and cut ends
B4: CA9: anti-tau clone, SEQ ID NO: 371 (protein)
scFv: QVQLQESGPSLVKPSQTLSLTCTVSGFSLTSNSVGWVRQAPGKAPEWVAGIDTDGEEGYNPALNSRLSITRDTSKSQVSLSLSSVTSEDTAVYYCGRSYRSDGLAYGYVQAIDYWGPGLLVTVSSEGKSSGASGESKVDDQAVLTQPASVSGSLGQRVSITCSGSFIGISSVGWFQQLPGSGLRTIIVASDGRPSGVPDRFSMSKSGNTATLTISSLQAEDEADYFCGSSDRTQYTGVFGSGTRLTVLG
modifications: CA9 amino acid sequence
B5: S1E12: anti-tau clone, SEQ ID NO: 218 (protein)
scFv: QVQLQESGPSLVKPSQTLSLTCTVSGFSLGSNSVGWVRQAPGKAPEWVAGIDTDGEEGYNPALNSRLSITRDTSKSQVSLSLSSVTSEDTAVYYCGRSYRADGLAYGYVQAIDYWGPGLLVTVSSEGKSSGASGESKVDDRVVRTQPSSVSGSLGQRVSITCSGSFIGISSVGWFQQLPGSGLRTIIVASDGRPSGVPDRFSMSKSGNTATLTISSLQAEDEADYFCGSSDRTQYTGVFGSGTRLTVLG
modifications: S1E12 amino acid sequence
B6: CA9 scAb (protein)
scFv: QVQLQESGPSLVKPSQTLSLTCTVSGFSLTSNSVGWVRQAPGKAPEWVAGIDTDGEEGYNPALNSRLSITRDTSKSQVSLSLSSVTSEDTAVYYCGRSYRSDGLAYGYVQAIDYWGPGLLVTVSSEGKSSGASGESKVDDQAVLTQPASVSGSLGQRVSITCSGSFIGISSVGWFQQLPGSGLRTIIVASDGRPSGVPDRFSMSKSGNTATLTISSLQAEDEADYFCGSSDRTQYTGVFGSGTRLTVLG
modifications: left off: small tags and cut ends

Legend:
htau40 = htau40 (Homo sapiens, UniProt P10636); test: Biacore X100 SPR of anti-tau mAbs on immobilised htau40; format: binding; details: mAb, Table 27, immobilised hT40
Experimental: For anti-tau mAb SPR measurements, htau40 was conjugated to the surface of a CM5 sensor chip using amine coupling as explained previously. Briefly, 2 μg/mL htau40 in 10 mM Sodium acetate buffer (pH 4.0) was passed over the activated chip surface (EDC/NHS) in flow cell 2 for a period for 45 s followed by blocking with 1 M ethanolamine-HCl PH 8.5. Flow cell 1 was set up as reference control and blocked simultaneously. Final immobilisation level of htau40 (Rmax) was approximately 250 RU. Following a minimum of three start-up cycles, increasing concentrations (0.78 nM-25 nM) of the mAb in HBS-EP+ buffer was added at a rate of 30 μL/min to the chip. The mAb was added for a 120 s association period and 600 s dissociation period followed by a regeneration cycle of 30 s injection of glycine buffer pH 1.5 in between each cycle. Binding responses were analysed in Biacore X100 evaluation software and data fitted to a 1:1 binding model to obtain kinetic and affinity characterisation.
For anti-tau mAb SPR measurements (Biacore X100™) and epitope mapping, the same methodologies described above (see Example 16) were followed. Kinetic rates and equilibrium binding constants of additional anti-tau mAbs and the regions recognised on hT40 are given in the Table 25 below

hT40 = hT40 (Homo sapiens, UniProt P10636); test: Biacore X100 SPR, scAb captured via anti-HuCk, hT40 as analyte; format: binding; details: scAb, Table 23, T441 (hT40)
Experimental: Surface plasmon resonance (SPR) is widely regarded as the gold standard for real time measurement of protein-protein interactions such as antibody binding. All SPR experiments were carried out using a Biacore X100 machine and HBS EP+ running buffer (GE Healthcare). A ‘capture’ method was followed for affinity measurements, where an anti-human constant kappa chain (HuCk) antibody was conjugated to the surface of a CM5 sensor chip using an amine coupling kit and scAb molecules were immobilised via their HuCk domain. Amine coupling is a very common approach for immobilising the ligand to the chip surface. […] The capture antibody was diluted 1/100 in 10 mM Sodium acetate buffer pH 5.0 and passed over the activated chip surface for a period of at least 420 s. Final ligand immobilisation levels over 12,000 RU were deemed to be satisfactory.
(§1) Following immobilisation, the level of each scAb to be captured was identified using the standard SPR equation with a theoretical RMax of 100 RU. Analyte MW refers to the molecular weight of hT40 or dGA/dGAE molecules, while ligand MW refers to the molecular weight of the scAbs tested. RL is the desired capture level and S refers to the stoichiometric ratio:
The scAb to be tested was added only to flow cell 2 so that flow cell 1 could act as a control to subtract any interaction with the analyte and the chip surface. Both single and multi-cycle runs were utilised using wizards developed in the Biacore X100 control software which are both accepted methods of kinetic analysis (Karlsson, R., et al. Analyzing a kinetic titration series using affinity biosensors (2006) Analytical Biochemistry 349:136-47). The multi-cycle protocol was as follows-Three start-up cycles composed of an initial capture, to the desired level, of the scAb to be tested was performed followed by a 30 s injection of glycine buffer pH 2.0 after each cycle to regenerate the chip surface. […] Following three start-up cycles increasing concentrations (0.15625 nM-100 nM) of the target to be tested were added to the chip surface after the desired scAb capture. The target was added for a 120 s association period and 420 s dissociation period followed by another regeneration, 30 s injection of glycine buffer pH 2.0 in between each cycle.
(§2) The single cycle kinetics protocol was similar and utilised the same level of scAb capture. Three start-up cycles were used followed by 5 increasing concentrations of the analyte (6.25 nM-100 nM) for an association period of 120 s followed by a dissociation period of 420 s for each concentration. In single cycle kinetics the regeneration step was performed only after the final analyte concentration was added. Binding responses were analysed in Biacore X100 evaluation software and data fitted to a 1:1 binding model to obtain kinetic and affinity characterisation.

[1] = tested on: alanine substituted 13mer tau peptides; test: Alanine scanning mutagenesis (ASM) peptide ELISA; format: binding, human; details: numbering according to SEQ ID NO: 1; description text 'may be'
Experimental: To further elucidate epitopes of the scAb panel, and identify the critical amino acids needed for binding, alanine scanning mutagenesis of the parent 13 aa peptides for scAbs CE2, S1D12, CA4 and S1G2 was performed. […] Briefly, 5 μg/ml streptavidin (Thermo Fisher) was adsorbed to Nunc 96-well MaxiSorp plates and following incubation at 37° C., for 1 h, the plates were washed as normal and blocked with 2% MPBS. N-terminally biotinylated peptides (Prolmmune Ltd) were added to the plates and incubated for 1 h at 37° C. Subsequently, test scAbs at starting concentrations of 100-500 nM was added and double diluted across the plate for each peptide and incubated for 1 h at 37° C. Rest of the ELISA was conducted as described above and the plates were read at absorbance 450 nm. Immunoreactivity of the scAb of interest was quantified as the % of scAb was bound for each peptide at a chosen concentration (FIG. 15-20).

dGAE aggregates = dGAE aggregates (Homo sapiens, UniProt P10636); test: Sandwich ELISA on SDS/Triton X-100 treated dGAE aggregates; format: binding
Experimental: For aggregation, 1000 μL 100 μM dGAE+10 μL 10 mM DTT was added to a ‘LoBind’ microfuge tubes and agitated at 700 RPM/37° C., for 24 hours. Resulting sample centrifuged at 17,000×g/4° C., for 60 min and supernatant discarded to remove left over monomer. Pellet resuspended in half the original volume for future experiments and hereafter referred to as ‘aggregates’. 1 μl of aggregates was added to 1 ml of PBS and SDS was added to a final concentration of 1% (w/v). This was left to incubate on lab bench for 1 h with gentle agitation every 15 minutes. In order to neutralise the SDS effect on ELISA, Triton X-100 added to a final concentration of 3% (v/v) and mixed gently by pipetting to prevent any bubble formation. […] Similarly aggregates treated with only SDS or Triton X-100, untreated aggregates, dGAE monomers treated with only SDS or SDS+Titon X-100 were also added to designated wells as controls. All samples were then double diluted across the plate in final volumes of 100 μl. The final column was left with no protein to act as a blank. This was allowed to stand at room temperature for 1 hour followed by the addition of detection scAb-S1G2 at 10 μg/ml. Anti-HuCk HRP labelled secondary antibody was added as described previously and ELISA data generated was represented using the graph below. In addition, limits of detection (LoD) of various core binding antibody pairing for SDS Triton X-100 treated dGAE aggregates were calculated using the above describe ELISA method and substituting capture mAbs and detection scAbs as shown in Table 30.

dGA = dGA (Homo sapiens, UniProt P10636); test: Biacore X100 SPR, scAb captured via anti-HuCk, dGA as analyte; format: binding; details: dissociation rate
Experimental: Surface plasmon resonance (SPR) is widely regarded as the gold standard for real time measurement of protein-protein interactions such as antibody binding. All SPR experiments were carried out using a Biacore X100 machine and HBS EP+ running buffer (GE Healthcare). A ‘capture’ method was followed for affinity measurements, where an anti-human constant kappa chain (HuCk) antibody was conjugated to the surface of a CM5 sensor chip using an amine coupling kit and scAb molecules were immobilised via their HuCk domain. Amine coupling is a very common approach for immobilising the ligand to the chip surface. The chip surface has a dextran matrix derivatised with carboxyl groups, which after activation with N-hydroxysuccinimide (NHS) and 1-ethyl-3-(3-dimethylaminopropyl) carbodiimide (EDC), form reactive succinimide esters which allows the covalent capturing of the ligand via any available primary amine groups (e.g. Lysine) on the ligand (in this case anti-HuCk antibody). The capture antibody was diluted 1/100 in 10 mM Sodium acetate buffer pH 5.0 and passed over the activated chip surface for a period of at least 420 s. Final ligand immobilisation levels over 12,000 RU were deemed to be satisfactory.
as §1
The scAb to be tested was added only to flow cell 2 so that flow cell 1 could act as a control to subtract any interaction with the analyte and the chip surface. Both single and multi-cycle runs were utilised using wizards developed in the Biacore X100 control software which are both accepted methods of kinetic analysis (Karlsson, R., et al. Analyzing a kinetic titration series using affinity biosensors (2006) Analytical Biochemistry 349:136-47). The multi-cycle protocol was as follows-Three start-up cycles composed of an initial capture, to the desired level, of the scAb to be tested was performed followed by a 30 s injection of glycine buffer pH 2.0 after each cycle to regenerate the chip surface. The regeneration step removed any captured scAb whilst leaving the capture antibody intact and able to repeat the capture for the next cycle. Following three start-up cycles increasing concentrations (0.15625 nM-100 nM) of the target to be tested were added to the chip surface after the desired scAb capture. The target was added for a 120 s association period and 420 s dissociation period followed by another regeneration, 30 s injection of glycine buffer pH 2.0 in between each cycle.
as §2

[2] = S1D12 mAb capture, +SDS Triton dGAE agg.
[3] = direct immobilisation of dGAE aggregates, +SDS Triton

Chain of dGAE aggregates (P10636 614-708): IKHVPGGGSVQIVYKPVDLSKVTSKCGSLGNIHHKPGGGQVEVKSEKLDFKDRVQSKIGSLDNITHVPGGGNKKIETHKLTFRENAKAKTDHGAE
Chain of hT40 (P10636 1-441 isoform P10636-8): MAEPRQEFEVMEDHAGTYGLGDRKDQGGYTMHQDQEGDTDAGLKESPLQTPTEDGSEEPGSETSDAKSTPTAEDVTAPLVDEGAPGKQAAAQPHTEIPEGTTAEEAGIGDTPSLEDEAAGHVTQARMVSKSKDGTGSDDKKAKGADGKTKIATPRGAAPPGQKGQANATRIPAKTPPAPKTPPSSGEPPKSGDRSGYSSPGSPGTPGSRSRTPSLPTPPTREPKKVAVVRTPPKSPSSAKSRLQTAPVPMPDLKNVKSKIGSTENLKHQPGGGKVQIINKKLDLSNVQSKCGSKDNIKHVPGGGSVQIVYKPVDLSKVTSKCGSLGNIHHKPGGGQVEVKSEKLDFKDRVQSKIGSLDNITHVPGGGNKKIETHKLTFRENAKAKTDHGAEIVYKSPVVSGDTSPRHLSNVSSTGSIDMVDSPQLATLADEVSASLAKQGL
Chain of htau40 (P10636 1-441 isoform P10636-8): as above
Chain of dGA (P10636 614-707): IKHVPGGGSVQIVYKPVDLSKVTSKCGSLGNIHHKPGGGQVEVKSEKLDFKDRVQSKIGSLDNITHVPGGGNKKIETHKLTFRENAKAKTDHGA

Row | Molecule | ka (hT40) | kd (hT40) | Critical residues of the epitope [1] | LoD (dGAE aggregates; [2]) | LoD (dGAE aggregates; [3]) | also measured
1 | B1 | 458100 M⁻¹ s⁻¹ | 0.001654 s⁻¹ | 358 (D), 360 (I), 361 (T), 362 (H) and/or 364 (P) | – | – | ka (htau40): 1.02e+06 M⁻¹ s⁻¹; kd (htau40): 0.001276 s⁻¹
2 | B2 | – | – | 370 (K), and/or 374 (H) | – | – | –
3 | B3 | – | – | – | 2 ng/mL | 16 ng/mL | –
4 | B4 | – | – | 370 (K), and/or 374 (H) | – | – | –
5 | B5 | 385000 M⁻¹ s⁻¹ | 0.000319 s⁻¹ | – | – | – | Kd (dGA): 0.001627 s⁻¹
6 | B6 | – | – | – | 4 ng/mL | 40 ng/mL | –
